The source of these data is US20180291088A1.

For assay [1], the target named is EBOV GP on pseudotyped lentivirus particles (EBOV , Mayinga) (UniProt Q05320). The assay is described as follows: cell-based or functional assay.
The target of assay [2] is EBOV GP , coated on ELISA plates (EBOV , Mayinga) (UniProt Q05320).
Assay [3] has as its target EBOV GP on pseudotyped lentivirus particles (EBOV , Mayinga), Q05320. The assay is described as follows: cell-based or functional assay.
The target of assay [4] is EBOV GP , coated on ELISA plates (EBOV , Mayinga) (UniProt Q05320). This is another data set of the same source.

Where “and” joins values, the source holds several entries; their conditions need not be identical. Equal entries are not always repeated.

As to KZ52 monoclonal antibody, the maximum inhibition of input pseudovirus in assay [1] was 80% and 90%.

On to 13C6 monoclonal antibody, for which the neutralization of pseudovirus at 10 µg/mL in assay [1] is < 20%.

B1: EVB114 monoclonal antibody (antibody, V domains shown)
VH: EVQLVESGGGLIQPGGSLRLSCAASGFALRMYDMHWVRQTIDKRLEWVSAVGPSGDTYYADSVKGRFAVSRENAKNSLSLQMNSLTAGDTAIYYCVRSDRGVAGLFDSWGQGILVTVSS
VL: DIQMTQSPSSLSASVGDRITITCRASQAFDNYVAWYQQRPGKVPKLLISAASALHAGVPSRFSGSGSGTHFTLTISSLQPEDVATYYCQNYNSAPLTFGGGTKVEIK
In assay [2], B1 yielded an EC50 of 0.07 µg/mL and a maximal binding, higher than the other mAbs of 100%. Further, the maximum inhibition of input pseudovirus in assay [3] was found to be 100%.

B2: EVB100 monoclonal antibody (antibody, V domains shown)
VH: QVQLQESGPGLVKPSDTLSLTCTVSGGSLSSFYWSWIRQPPGKGLEWIGYIYYSGSPNYSPSLESRVTMSVDTTRNQISLKLDSVTAADTAVYYCVRASRSYYWGSYRPTAFDSWGQGTLVTVSS
VL: SYELTQPLSVSVSPGQTAIFTCSGDNLGDKYVCWFQQRPGQSPMLLIYQDNKRPSGIPERFSGSNSGNTATLTISGTQSTDEADYYCQTWDSTVVFGGGTKLTVL
Molecule B2 showed an EC50 in assay [2] of 0.26 µg/mL. In assay [3], the maximum inhibition of input pseudovirus came to 100%.

B3: EVB165 monoclonal antibody (antibody, V domains shown)
VH: DVQLVESGGGVVQPGGSLKLACVVSGFRFSDYWMSWVRQAPGKGLEWVANIKQDGSGKYYVDSVKGRFTVSRDNAKNSLYLHMTSLGAEDTAVYFCARAAPTGSYTNILVDNVHFDYWGQGILVAVSS
VL: GIQLTQSPGSLSASVGDSVTITCRPNQNIATYINWYQQTPGKAPKLLIYAASILQSGVPSRFSGAGSGTHFTLIISTLQPEDSATYYCQQSYSTPWTFGQGTKVEIK
As to B3, in assay [4], the Abs 450 was 3.17 A450 and 1.72 A450. Moreover, the EC50 in assay [2] is > 1 µg/mL. In assay [3], this molecule showed a maximum inhibition of input pseudovirus of 100%.

B4: EVB166 monoclonal antibody (antibody, V domains shown)
VH: QVQLVQSGAEVKKPGSSVKVSCKTSGGTLSNYAISWVRQAPGQGLEWMGGTIPTLGMSTYAPNFQGRVAITADKSTSTAYMELSSLRSDDTAVYYCATMGSADTSFYFYMDVWGKGTTVTVSS
VL: EIVLTQSPGTLSLSPGERATLSCRASQSVSSSYLAWYQQKPGQAPRLLIYGTSSRATGIPDRFSGSASGTDFTLTISRLEPEDFAVYYCQQYAYSPFTFGPGTKVDIK
In assay [3], B4 registered a maximum inhibition of input pseudovirus of 100%.

B5: EVB167 monoclonal antibody (antibody, V domains shown)
VH: AVQLVQSGAEVKKPGTTVKISCKVSGYTFIQEYIHWVQQAPGKGLVWMGLGDPENNETLYSEDFQGRVTMTADTSSDTAYLELRSLTFADTAVYFCTSRKSWWGQGTLVTVAS
VL: ELVLTQSPGTLSLSPGESATLSCRASQSLSSDSVSWFQQKPGQAPRLVIHGTSKRATGIPDRFSGGGSGTDFTLTIARLEPEDFAVYYCQRSGYGMSVTWTFGQGTTVEIK
In the case of B5, in assay [4], the Abs 450 was 3.37 A450 and 2.97 A450.

The term EC50 denotes the concentration that produces a half-maximal response.
